The supplement of paper PMC7877785
± gives the uncertainty stated by the source.

Experiment: self-splicing fitness, log relative to wild type (ln ratio); higher = more splicing; Tetrahymena group I intron in knt gene, E. coli kanamycin selection, DiMSum; sequences stand for … in CUCUCU…GGAGGGAAAAGUUAUCAGGCAUGCACCUGGUAGCUAGUCUUUAAACCAAUAGAUUGCAUCGGUUUAAAAGGCAAGACCGUCAAAUUGCGGGAAAGGGGUCAACAGCCGUUCAGUACCAAGUCUCAGGGGAAACUUUGAGAUGGCCUUGCAAAGGGUAUGGUAAUAAGCUGACGGACAUGGUCCUAACCACGCAGCCAAGUCCUAAGUCAACAGAUCUUCUGUUGAUAUGGAUGCAGUUCACAGACUAAAUGUCGGUCGGGGAAGAUGUAUUCUUCUCAUAAGAUAUAGUCGGACCUCUCCUUAAUGGGAGCUAGCGGAUGAAGUGAUGCAACACUGGAGCCGCUGGGAACUAAUUUGUAUGCGAAAGUAUAUUGAUUAGUUUUGGAGUACUCGUGGUCG
Method in brief: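 Pooled colonies went to amplicon sequencing on an Illumina HiSeq 2500 after six replicate transformations. The plates were LB agar with 100 μg/mL carbenicillin, 50 μM IPTG and 0.2% rhamnose, with or without 25 μg/mL kanamycin, incubated overnight at 37°C or 30°C. The E. coli BL21(DE3) library had all eight P1ex-region intron nucleotides randomised, the intron placed in the knt kanamycin-resistance gene on pET-22b(+). DiMSum fitness is the error-weighted combination of replicate fold changes, kanamycin against none, normalised to wild type.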

Sequence | self-splicing fitness (ln) (37 °C) | self-splicing fitness (ln) (30 °C)
ACGGAGCAAUAUUACGCGAU | -1.2 ± 0.17 | 
GAGUAGCAAUAUUACGCCUU | -0.976 ± 0.24 | -3.2 ± 0.23
CGUAAGCAAUAUUACGUAAU | -2.64 ± 0.18 | -3.23 ± 0.16
GGACAGCAAUAUUACGUGGU | -1.08 ± 0.11 | -2.9 ± 0.12
UGCCAGCAAUAUUACGUAUA | -1.62 ± 0.12 | -1.92 ± 0.11
UGGAAGCAAUAUUACGUCAU | -3.01 ± 0.3 | -2.99 ± 0.35
GUGAAGCAAUAUUACGGAGG | -2.49 ± 0.41 | -2.3 ± 0.23
UGAUAGCAAUAUUACGUCGU | -2.02 ± 0.35 | -2.06 ± 0.34
UGGAAGCAAUAUUACGGACA | -0.0422 ± 0.11 | -1.03 ± 0.13
AUUCAGCAAUAUUACGUACU | -0.011 ± 0.095 | 0.26 ± 0.079
GAGCAGCAAUAUUACGCUUU | -2.5 ± 0.26 | -1.94 ± 0.18
AAGCAGCAAUAUUACGGCCC | 0.271 ± 0.17 | 0.22 ± 0.14
AUGCAGCAAUAUUACGAUCA | -0.711 ± 0.14 | -0.908 ± 0.14
UCCAAGCAAUAUUACGGGGA | -1.27 ± 0.1 | -2.58 ± 0.15
AUUAAGCAAUAUUACGGCAA | 0.438 ± 0.15 | -0.363 ± 0.12
UGUUAGCAAUAUUACGUUGG | -1.26 ± 0.14 | -1.56 ± 0.11
GUCAAGCAAUAUUACGAACA | -1.24 ± 0.19 | -2.25 ± 0.22
CAAAAGCAAUAUUACGCACU | -0.654 ± 0.089 | -1.57 ± 0.091
UGAGAGCAAUAUUACGAACG | -1.43 ± 0.33 | -1.02 ± 0.18
ACGCAGCAAUAUUACGCCGU | -2.74 ± 0.27 | -3.33 ± 0.2
ACACAGCAAUAUUACGCGCC | -1.13 ± 0.1 | -0.614 ± 0.11
ACCCAGCAAUAUUACGAGGA | -1.08 ± 0.077 | -0.706 ± 0.068
GUUAAGCAAUAUUACGCCAU | -1.26 ± 0.3 | -2.03 ± 0.27
GCCCAGCAAUAUUACGAGGA | -0.147 ± 0.086 | -0.441 ± 0.075
CCCUAGCAAUAUUACGACUU | -2.7 ± 0.29 | -3.27 ± 0.23
UGUUAGCAAUAUUACGCGUG | -0.61 ± 0.099 | -0.492 ± 0.11

Sequence | self-splicing fitness (ln) (37 °C) | self-splicing fitness (ln) (30 °C)
GUUCAGCAAUAUUACGACAU | 0.437 ± 0.033 | -0.0137 ± 0.013
AGCAAGCAAUAUUACGCCGU | -0.892 ± 0.11 | -1.05 ± 0.11
ACCCAGCAAUAUUACGGCUC | -0.423 ± 0.073 | -1.46 ± 0.058
UCUGAGCAAUAUUACGAGUC |  | -2.7 ± 0.41
UUAAAGCAAUAUUACGUGAA | -0.0245 ± 0.13 | -1.8 ± 0.13
CCCGAGCAAUAUUACGAGAG | -2.15 ± 0.36 | -3.25 ± 0.2
UACGAGCAAUAUUACGCUCG | -1.74 ± 0.31 | 
GGGAAGCAAUAUUACGCCAG |  | -3.13 ± 0.36
AGGCAGCAAUAUUACGACCG | 0.0303 ± 0.085 | 0.153 ± 0.071
GACCAGCAAUAUUACGACUC | 0.162 ± 0.077 | -0.264 ± 0.06
UGCGAGCAAUAUUACGACCG | 0.112 ± 0.21 | -1.72 ± 0.17
CUCGAGCAAUAUUACGGCGA | -2.61 ± 0.36 | -3.88 ± 0.46
AGUGAGCAAUAUUACGACGG | -0.814 ± 0.22 | -3.25 ± 0.28
AAGUAGCAAUAUUACGCGUG | -0.191 ± 0.092 | -0.856 ± 0.067
UCUUAGCAAUAUUACGUUGU | -1.24 ± 0.14 | -3.61 ± 0.19
GUCAAGCAAUAUUACGCAGU | -1.16 ± 0.19 | -3.31 ± 0.33
UUGCAGCAAUAUUACGAACA | -1.24 ± 0.15 | -0.626 ± 0.17
AGGCAGCAAUAUUACGGGGA | -3.03 ± 0.23 | 
UAACAGCAAUAUUACGUUUU | -1.7 ± 0.099 | -3.39 ± 0.12
ACAGAGCAAUAUUACGCACA | -1.39 ± 0.36 | 
GCCGAGCAAUAUUACGGGUC | -2.77 ± 0.11 | -3.68 ± 0.16
UCGAAGCAAUAUUACGUUAU | -1.16 ± 0.15 | -4.01 ± 0.28
GGAAAGCAAUAUUACGCAGU | -1.47 ± 0.12 | -2.78 ± 0.13
CAGCAGCAAUAUUACGCACU | -1.8 ± 0.12 | -0.834 ± 0.1
UGCGAGCAAUAUUACGGGCG | -0.628 ± 0.086 | -1.59 ± 0.061
UCCCAGCAAUAUUACGGUCC | -1.26 ± 0.18 | -1.68 ± 0.14

Sequence | self-splicing fitness (ln) (37 °C) | self-splicing fitness (ln) (30 °C)
ACAGAGCAAUAUUACGGGCC |  | -1.79 ± 0.29
UGCCAGCAAUAUUACGCUAA | 0.0253 ± 0.095 | -0.447 ± 0.084
CCCAAGCAAUAUUACGCUUC | -3.15 ± 0.43 | -2.84 ± 0.18
AGAGAGCAAUAUUACGACUC | -0.408 ± 0.15 | -1.4 ± 0.12
UCAUAGCAAUAUUACGCAAG | -2.04 ± 0.2 | -1.94 ± 0.15
UCACAGCAAUAUUACGAAAU | -0.587 ± 0.16 | -3.43 ± 0.37
GAGCAGCAAUAUUACGAUAC | -1.45 ± 0.15 | -1.61 ± 0.12
GGCGAGCAAUAUUACGGAAA |  | -1.06 ± 0.48
CAGAAGCAAUAUUACGUACC | -1.55 ± 0.27 | -2.33 ± 0.24
CGGCAGCAAUAUUACGAAAA | -2.21 ± 0.37 | -2.23 ± 0.26
CACUAGCAAUAUUACGGCUG | 0.114 ± 0.065 | -0.972 ± 0.054
AUCCAGCAAUAUUACGGCCU | 0.0854 ± 0.081 | -0.115 ± 0.065
AGCCAGCAAUAUUACGUUUG | -3.22 ± 0.23 | -3.47 ± 0.13
GAGAAGCAAUAUUACGUUUC | -3.08 ± 0.27 | -3.64 ± 0.32
ACUUAGCAAUAUUACGACAA | -0.888 ± 0.28 | -1.55 ± 0.17
AGCUAGCAAUAUUACGUUUU | -2.18 ± 0.16 | -2.36 ± 0.14
CUCGAGCAAUAUUACGUAGG | -0.804 ± 0.15 | -1.11 ± 0.11
UCUGAGCAAUAUUACGCUAU | -3.15 ± 0.28 | -3.8 ± 0.22
GCGAAGCAAUAUUACGUCCG | -0.577 ± 0.2 | -1.24 ± 0.14
CGUAAGCAAUAUUACGCAUC | -2.03 ± 0.26 | 
CAGCAGCAAUAUUACGCCUG | -2.35 ± 0.21 | -3.7 ± 0.22
UCCUAGCAAUAUUACGUGCU | -1.8 ± 0.2 | -3.5 ± 0.17
AGUGAGCAAUAUUACGUAUC |  | -3.05 ± 0.34
GUAGAGCAAUAUUACGCGCA | 0.0346 ± 0.13 | -0.299 ± 0.1
CAUAAGCAAUAUUACGACCG | 0.553 ± 0.14 | 0.135 ± 0.085
AACGAGCAAUAUUACGAGAA | -1.56 ± 0.33 | -1.87 ± 0.22
